Values quoted from earlier work, collected in paper PMC2864607.
Like-named read-outs stand apart in the source and are kept apart here.

Tests used:
His451 = His451 (UniProt position 451, EASGCHYGVLT)
[1] = tested on: His2 (position 2, ----GHG----); assay: NMR; settings: 25 °C; 0.02 M NaCl; Free model peptide
His49 = His49 (UniProt position 49, PGIICHLDDPK)
His203 = His203 (UniProt position 203, LTPHRHRVSAI)
His318 = His318 (UniProt position 320, VSSTWHWTGHN)
His326 = His326 (UniProt position 328, GHNVKHKSAIV)
His322 = His322 (UniProt position 324, WHWTGHNVKHK)
[2] = biological target: His3 (position 3, ---KSHPE---); assay: NMR; settings: 25 °C, 0.02 M NaCl, Free model peptide
[3] = biological target: His3 (position 3, ---FKHLK---); assay: NMR; settings: 25 °C; 0.02 M NaCl; Free model peptide
[4] = Protein bound specifically to its cognate DNA recognition sequence

Molecule: Glucocorticoid receptor (DNA-binding domain) (Rattus norvegicus)
- pKa (His451; [4]): 7.9
- pKa (His451; Unbound protein (no DNA)): 5.9

Molecule: GHG model tripeptide (Gly-His-Gly) (synthetic)
- pKa [1]: 6.68 ± 0.02

Molecule: TATA-binding protein (PwTBP) (Pyrococcus woesei)
- pKa (His49; [4]): 7.2
- pKa (His49; Unbound protein (no DNA)): 6.2

Molecule: Large T antigen origin-binding domain (T-ag-obd) (Simian virus 40)
- pKa (His203; [4]): >8
- pKa (His203; Unbound protein (no DNA)): ~5

Molecule: E2 protein C-terminal DNA-binding domain (E2C) (Human papillomavirus type 16)
- pKa (His318; [4]): 7.8
- pKa (His318; Unbound protein (no DNA)): 6.7
- pKa (His326; [4]): 6.2
- pKa (His326; Unbound protein (no DNA)): 6.2
- pKa (His322; [4]): 6.3
- pKa (His322; Unbound protein (no DNA)): 6.3

Molecule: KSHPE [KSHPE model peptide (myoglobin-derived) (synthetic (sequence from Physeter macrocephalus myoglobin))]
- pKa ([2]; cis His-Pro isomer): 6.23 ± 0.02
- pKa ([2]; trans His-Pro isomer): 6.69 ± 0.02

Molecule: FKHLK [FKHLK model peptide (myoglobin-derived) (synthetic (sequence from Physeter macrocephalus myoglobin))]
- pKa [3]: 6.16 ± 0.02
